Results taken from article PMC10157364 (Molecular Cancer Therapeutics, 2023).
Numbering of substitutions follows the chain as printed. Names may count otherwise.

B1: C0008 (antibody, V domains shown)
VH: EVQLLESGGGLVQPGGSLRLSCAASGFTFSIYSMNWVRQAPGKGLEWVSSIGSSGGTTYYADSVKGRFTISRDNSKNTLYLQMNSLRAEDTAVYYCAGSQWLYGMDVWGQGTTVTVSS
VL: DIQMTQSPSSLSASVGDRVTITCRSSQRIMTYLNWYQQKPGKAPKLLIFVASHSQSGVPSRFRGSGSETDFTLTISGLQPEDSATYYCQQSFWTPLTFGGGTKVEIK
notes: human IgG1 wt constant region; variable region shared with BaxB01 (PDB 6FOE); full-length light chain identical to that of imalumab; Human IgG1; also called imalumab; Bax69; source: ExpiCHO, transient expression, purified (Protein A MabSelect PrismA, HiTrap SP HP)
B2: ON203 (antibody, V domains shown)
VH: B1 VH with L5Q, W101Y
VL: B1 VL with F49Y, A51G, W93F
notes: heavy-chain variable domain of C0090: the VH of m1 with point mutations; heavy-chain constant region of an IgG1/IgG2 hybrid isotype with two point mutations (S239D/I332E) in the CH2 domain; light chain of C0090: as the light chain of m1 with point mutations in VL; Variable domains of C0090 on an IgG1/IgG2 hybrid constant region; also called second-generation anti-oxMIF mAb; lead candidate; …
B3: ON103 (antibody, V domains shown)
VH: B1 VH with L5Q, W101Y
VL: B1 VL with M30L, F49Y, A51G, P80S, W93F
notes: heavy-chain variable domain of C0083: the VH of m1 with point mutations; heavy-chain constant region of an IgG1/IgG2 hybrid isotype with two point mutations (S239D/I332E) in the CH2 domain; light chain of C0083: as the light chain of m1 with point mutations in VL; Variable domains of C0083 on an IgG1/IgG2 hybrid constant region; also called second-generation anti-oxMIF mAb; lead candidate; …

How the values were obtained:
[1] = molecular target: T1, human MIF treated with 0.2% Proclin300 (oxMIF surrogate) (Homo sapiens, UniProt P14174, treated with 0.2% Proclin300 to transform MIF into an oxMIF surrogate); assay: SPR; Biacore 3000; antibodies amine-coupled to CM5 chips (about 2,500; 1,500; 1,000 RU); MIF at 42-666 nmol/L in HBS-EP with 0.2% Proclin300 (3 hours, room temperature), 30 uL/minute; Langmuir 1:1 model with mass transfer; mean of flow cells 2-4; details: both partners purified
T1 construct: human MIF; Same protein as m4, after treatment with Proclin300 (3 hours at room temperature for SPR); also called human oxMIF in solution; soluble human oxMIF; source: E. coli SHuffle T7 Express lysY, purified (DEAE flow-through, SP cation exchange, SEC or desalting)
T1 sequence (P14174 whole entry): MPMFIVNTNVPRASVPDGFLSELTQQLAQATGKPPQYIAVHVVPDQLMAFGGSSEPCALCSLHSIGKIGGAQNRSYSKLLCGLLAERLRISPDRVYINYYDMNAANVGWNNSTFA

[2] = molecular target: T2, mouse MIF treated with 0.2% Proclin300 (oxMIF surrogate) (Mus musculus, UniProt P34884, treated with 0.2% Proclin300 to transform MIF into an oxMIF surrogate); assay: ELISA; quantitative oxMIF ELISA: 15 nmol/L C0008, ON103 or ON203 as capture antibodies; human or mouse MIF in buffers with 0.2% Proclin300 as standard curves; EC50; details: both partners purified
T2 construct: mouse MIF; also called mouse oxMIF in solution; soluble mouse oxMIF; source: E. coli SHuffle T7 Express lysY, purified (DEAE flow-through, SP cation exchange, SEC or desalting)

Row | Binder | binding result [1] | binding result [2]
1 | B1 | binds | binds
2 | B2 | – | binds
3 | B3 | – | binds
